Key:
[1] = molecular target: T1, Cyno Semaphorin3A-Sema Domain, TPP-19122 (cynomolgus (Macaca fascicularis), UniProt Q63548 21-569 (rat entry), limits assumed); experiment: SPR, captured antibody, Sema3A domain analyte
T1 construct: produced inhouse
T1 chain: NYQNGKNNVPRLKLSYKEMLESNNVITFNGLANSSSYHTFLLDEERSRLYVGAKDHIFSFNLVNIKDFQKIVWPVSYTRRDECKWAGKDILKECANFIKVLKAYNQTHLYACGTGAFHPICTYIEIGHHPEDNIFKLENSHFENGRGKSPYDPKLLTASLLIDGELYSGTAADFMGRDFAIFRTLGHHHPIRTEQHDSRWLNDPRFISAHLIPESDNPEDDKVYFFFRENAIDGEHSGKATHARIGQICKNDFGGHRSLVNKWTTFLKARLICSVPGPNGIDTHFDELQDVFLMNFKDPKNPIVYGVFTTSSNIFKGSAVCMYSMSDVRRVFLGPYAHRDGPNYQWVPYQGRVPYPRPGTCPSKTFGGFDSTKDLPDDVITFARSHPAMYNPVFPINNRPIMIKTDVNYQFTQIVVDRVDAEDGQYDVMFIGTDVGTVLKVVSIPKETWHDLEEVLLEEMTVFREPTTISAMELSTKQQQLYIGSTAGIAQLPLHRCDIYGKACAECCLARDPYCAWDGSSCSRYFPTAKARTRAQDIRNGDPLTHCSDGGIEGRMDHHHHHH
Procedure: To assess the binding activity of anti-Sema3A antibodies binding assays were conducted using surface plasmon resonance (SPR). Binding assays were performed on a Biacore T200 instrument (Cytiva) at 25° C. using assay buffer HBS P+, 300 mM NaCl, 0.75 mM CaCl₂, 2.5 mM MgCl₂, 1 mg/ml BSA, 0.05% NaN₃. Antibodies were captured via anti-human Fc IgGs (“Human antibody capture kit”, Order No. BR100839, Cytiva) covalently amine coupled to a Series S CM5 sensor chip (Cytiva). The amine coupling was carried out according to the manufacturer's instructions using 1-ethyl-3-(3-dimethylaminopropyl) carbodiimide hydrochloride (EDC), N-hydroxysuccinimide (NHS) and ethanolamine HCl, pH 8.5 (“Amine Coupling Kit” BR-1000-50, Cytiva.). Human, mouse, cynomolgus, rat, dog and pig monovalent Sema3A domain were used as analytes in a concentration series from 0.024-3.125 nM in multi cycle kinetics mode. The sensor surface was regenerated with glycine pH 2.0 after each antigen injection. Obtained sensorgrams were double referenced (subtraction of reference flow cell signal and buffer injection) and were fitted to a 1:1 Langmuir binding model using the Biacore T200 Evaluation software obtaining the experimental fitted RMax value. To calculate the binding activity first the theoretical RMax needs to be calculated according to equation 1: […]
Binding activity was determined by dividing the experimental determined RMax by the theoretical calculated RMax according to equation 2: […]

[2] = molecular target: T2, human wild-type Sema3A of SEQ ID NO: 600, expressed by HEK293 cells (human, UniProt Q14563 22-771, limits assumed); experiment: cell-based or functional assay
T2 sequence: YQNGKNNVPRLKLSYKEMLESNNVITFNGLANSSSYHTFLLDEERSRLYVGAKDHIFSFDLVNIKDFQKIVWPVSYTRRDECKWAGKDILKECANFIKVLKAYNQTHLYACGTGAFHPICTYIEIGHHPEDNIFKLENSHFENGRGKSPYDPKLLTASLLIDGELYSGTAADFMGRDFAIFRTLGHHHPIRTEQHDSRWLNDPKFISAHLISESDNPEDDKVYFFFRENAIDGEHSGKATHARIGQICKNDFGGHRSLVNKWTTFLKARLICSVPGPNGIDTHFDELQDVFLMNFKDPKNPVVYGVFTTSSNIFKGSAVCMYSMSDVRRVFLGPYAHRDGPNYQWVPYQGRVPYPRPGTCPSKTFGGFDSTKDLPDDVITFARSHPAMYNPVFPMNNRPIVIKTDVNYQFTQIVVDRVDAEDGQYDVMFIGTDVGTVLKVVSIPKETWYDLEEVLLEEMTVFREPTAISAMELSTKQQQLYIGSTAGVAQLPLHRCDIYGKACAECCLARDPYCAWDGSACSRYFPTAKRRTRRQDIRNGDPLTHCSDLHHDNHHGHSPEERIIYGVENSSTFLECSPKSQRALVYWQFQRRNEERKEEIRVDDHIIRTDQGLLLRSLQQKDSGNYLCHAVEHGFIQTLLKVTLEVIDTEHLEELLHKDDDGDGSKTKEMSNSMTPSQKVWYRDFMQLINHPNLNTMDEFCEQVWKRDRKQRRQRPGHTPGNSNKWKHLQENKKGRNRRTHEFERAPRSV

[3] = molecular target: T3, Human Semaphorin3A-Fc (R&D Systems), TPP-13211 (human); experiment: competition ELISA on coated TPP-13211, competitor biotinylated TPP-15370
T3 construct: R&D Systems 1250-S3; also called recombinant human Sema3A-Fc chimera
Procedure: For screening in a competition ELISA setup, human Sema3a (TPP-13211) was coated onto 384-well plates (Greiner bio-one, 781077) with a concentration of 0.5 μg/ml in coating buffer (Carbonate-Basis pH 9.6, Candor 121125) over night at 10° C. After washing the plates 3 times with 50 μl PBS 0.05% Tween the plates were blocked with 50 μl Smart Block® (Candor 113500) for 1 h at 20° C. and washed again 3 times as described.
Subsequently, 20 μl of pre-mixed antibody solution was added to the plates and incubate for 18 h at 10° C. […] The total concentration of the added antibody solution was 0.25 μg/ml. During the incubation time the antibodies bound to the plates in a competitive manner as they compete for the same epitope on the human Sema3A protein.
After subsequent washing with 50 μl PBS 0.05% Tween for 3 times, 20 μl of a Streptavidin-HRP solution (R&D Systems, DY998, 1:200 in PBS 0.05% Tween 10% Smart Block) were added and incubated for 1 h and 20° C. followed by subsequent washing 3 times with 50 μl PBS 0.05% Tween and addition of 20 μl Amplex Red solution (Invitrogen A12222, 1:1000 in NaP-buffer 50 mM pH7.6 with 1:10000 of 30% H2O2). After a final incubation for 20 min at 20° C. the signal was determined using an emission wavelength of 595 nm and excitation of 530 nm.

[4] = molecular target: T3, Human Semaphorin3A-Fc (R&D Systems), …; experiment: cell-based or functional assay

T3 sequence (chain, as listed by the source limits assumed): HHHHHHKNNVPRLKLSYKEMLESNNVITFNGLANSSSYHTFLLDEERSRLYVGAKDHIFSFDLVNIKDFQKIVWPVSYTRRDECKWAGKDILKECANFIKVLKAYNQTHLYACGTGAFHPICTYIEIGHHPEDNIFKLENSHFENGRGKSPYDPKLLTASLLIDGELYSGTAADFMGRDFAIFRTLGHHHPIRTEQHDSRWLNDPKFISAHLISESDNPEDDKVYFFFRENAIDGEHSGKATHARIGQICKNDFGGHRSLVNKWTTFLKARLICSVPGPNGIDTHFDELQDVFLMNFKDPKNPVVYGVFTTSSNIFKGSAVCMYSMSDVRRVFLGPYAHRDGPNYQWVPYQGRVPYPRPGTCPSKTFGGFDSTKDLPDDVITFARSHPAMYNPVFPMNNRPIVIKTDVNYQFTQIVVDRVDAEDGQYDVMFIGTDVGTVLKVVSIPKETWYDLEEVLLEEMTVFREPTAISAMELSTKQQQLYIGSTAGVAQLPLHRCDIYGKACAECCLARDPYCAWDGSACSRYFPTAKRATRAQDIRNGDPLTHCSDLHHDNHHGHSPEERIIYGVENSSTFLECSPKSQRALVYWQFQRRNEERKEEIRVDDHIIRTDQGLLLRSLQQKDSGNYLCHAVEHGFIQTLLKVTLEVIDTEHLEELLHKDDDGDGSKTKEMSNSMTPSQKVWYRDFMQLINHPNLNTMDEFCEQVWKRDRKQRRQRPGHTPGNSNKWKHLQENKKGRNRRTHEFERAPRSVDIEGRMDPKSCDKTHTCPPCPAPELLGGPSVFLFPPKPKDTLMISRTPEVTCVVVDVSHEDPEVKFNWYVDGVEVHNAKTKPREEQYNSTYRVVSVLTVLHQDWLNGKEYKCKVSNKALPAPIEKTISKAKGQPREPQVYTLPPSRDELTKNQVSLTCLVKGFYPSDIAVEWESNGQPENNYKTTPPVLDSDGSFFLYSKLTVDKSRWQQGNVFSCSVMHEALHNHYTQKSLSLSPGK

B1: TPP-11489 (antibody, human IgG1, lambda)
heavy: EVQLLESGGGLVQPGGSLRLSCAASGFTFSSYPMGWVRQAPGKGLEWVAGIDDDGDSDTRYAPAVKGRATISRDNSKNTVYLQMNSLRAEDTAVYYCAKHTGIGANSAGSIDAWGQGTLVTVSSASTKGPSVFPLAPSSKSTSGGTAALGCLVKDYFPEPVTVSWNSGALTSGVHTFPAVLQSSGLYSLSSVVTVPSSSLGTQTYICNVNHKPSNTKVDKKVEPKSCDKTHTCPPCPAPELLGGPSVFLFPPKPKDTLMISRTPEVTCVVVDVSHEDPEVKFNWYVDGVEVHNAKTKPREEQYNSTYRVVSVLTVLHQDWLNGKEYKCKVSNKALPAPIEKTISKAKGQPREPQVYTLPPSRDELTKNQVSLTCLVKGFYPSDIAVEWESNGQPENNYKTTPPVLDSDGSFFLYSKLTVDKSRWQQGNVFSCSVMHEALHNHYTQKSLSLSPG
light: SYELTQPPSVSVSPGQTARITCSGGGSYTGSYYYGWYQQKPGQAPVTVIYYNNKRPSDIPERFSGSLSGTTNTLTISGVQAEDEADYYCGSADNSGDAFGTGTKVTVLGQPKAAPSVTLFPPSSEELQANKATLVCLISDFYPGAVTVAWKADSSPVKAGVETTTPSKQSNNKYAASSYLSLTPEQWKSHRSYSCQVTHEGSTVEKTVAPTECS
notes: human IgG1; also called Chiome; Chiome Prior Art (hIgG1)
Binding Activity [%] [1]: 13%

B2: TPP-23337 (antibody, human IgG4 S228P, lambda, V domains shown)
VH: EVQLLESGGGLVQPGGSLRLSCAASGFTFSSYAMSWVRQAPGKGLEWVSAIGYGGDTYYADSVKGRFTISRDNSKNTLYLQMNSLRAEDTAVYYCARRDDYTSRDAFDYWGQGTLVTVSS
VL: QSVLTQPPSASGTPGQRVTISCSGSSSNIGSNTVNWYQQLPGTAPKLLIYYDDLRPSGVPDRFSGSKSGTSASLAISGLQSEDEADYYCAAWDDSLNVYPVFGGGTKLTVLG
EC50 (pM), HUVEC repulsion assay [2]: 170 pM
VAL norm to TPP-9809 (1 to 1 ratio) [3]: 0.27
VAL norm to TPP-9809 (1 to 5 ratio) [3]: 0.14
EC50 (nM), GCC assay [4]: 2.12 nM

B3: TPP-23375 (antibody, human IgG4 S228P, lambda, V domains shown)
VH: EVQLLESGGGLVQPGGSLRLSCAASGFTFYSYAMSWVRQAPGKGLEWVSAIGYGGDTYYADSVKGRFTISRDNSKNTLYLQMNSLRAEDTAVYYCARRDDYTSRDAFDYWGQGTLVTVSS
VL: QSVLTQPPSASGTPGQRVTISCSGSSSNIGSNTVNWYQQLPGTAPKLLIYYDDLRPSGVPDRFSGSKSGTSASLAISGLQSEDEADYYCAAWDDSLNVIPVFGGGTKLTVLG
EC50 (pM), HUVEC repulsion assay [2]: 123 pM
VAL norm to TPP-9809 (1 to 1 ratio) [3]: 0.3
VAL norm to TPP-9809 (1 to 5 ratio) [3]: 0.16

B4: TPP-23346 (antibody, human IgG4 S228P, lambda, V domains shown)
VH: EVQLLESGGGLVQPGGSLRLSCAASGFTFYSYAMLWVRQAPGKGLEWVSAIGTGGDTYYADSVKGRFTISRDNSKNTLYLQMNSLRAEDTAVYYCARRDDYTSRDAFDYWGQGTLVTVSS
VL: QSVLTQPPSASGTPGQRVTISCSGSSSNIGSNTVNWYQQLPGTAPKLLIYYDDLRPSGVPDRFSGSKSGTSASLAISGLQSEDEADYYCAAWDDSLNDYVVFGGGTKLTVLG
VAL norm to TPP-9809 (1 to 1 ratio) [3]: 0.22
VAL norm to TPP-9809 (1 to 5 ratio) [3]: 0.13

B5: TPP-23340 (antibody, human IgG4 S228P, lambda, V domains shown)
VH: EVQLLESGGGLVQPGGSLRLSCAASGFTFSSYAMSWVRQAPGKGLEWVSAIGYGGDTYYADSVKGRFTISRDNSKNTLYLQMNSLRAEDTAVYYCARRDDYTSRDAFDYWGQGTLVTVSS
VL: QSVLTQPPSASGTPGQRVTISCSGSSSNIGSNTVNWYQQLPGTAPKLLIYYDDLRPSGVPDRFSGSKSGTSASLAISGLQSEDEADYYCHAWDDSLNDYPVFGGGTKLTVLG
EC50 (pM), HUVEC repulsion assay [2]: 180 pM
VAL norm to TPP-9809 (1 to 1 ratio) [3]: 0.4

B6: TPP-23373 (antibody, human IgG4 S228P, lambda, V domains shown)
VH: EVQLLESGGGLVQPGGSLRLSCAASGFTFYSYAMSWVRQAPGKGLEWVSAIGYGGDTYYADSVKGRFTISRDNSKNTLYLQMNSLRAEDTAVYYCARRDDYTSRDAFDYWGQGTLVTVSS
VL: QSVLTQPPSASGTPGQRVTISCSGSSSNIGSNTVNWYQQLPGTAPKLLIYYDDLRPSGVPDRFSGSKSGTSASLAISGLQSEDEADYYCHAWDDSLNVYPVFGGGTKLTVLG
EC50 (pM), HUVEC repulsion assay [2]: 180 pM
VAL norm to TPP-9809 (1 to 1 ratio) [3]: 0.35
VAL norm to TPP-9809 (1 to 5 ratio) [3]: 0.2

B7: TPP-23341 (antibody, human IgG4 S228P, lambda, V domains shown)
VH: EVQLLESGGGLVQPGGSLRLSCAASGFTFSSYAMSWVRQAPGKGLEWVSAIGYGGDTYYADSVKGRFTISRDNSKNTLYLQMNSLRAEDTAVYYCARRDDYTSRDAFDYWGQGTLVTVSS
VL: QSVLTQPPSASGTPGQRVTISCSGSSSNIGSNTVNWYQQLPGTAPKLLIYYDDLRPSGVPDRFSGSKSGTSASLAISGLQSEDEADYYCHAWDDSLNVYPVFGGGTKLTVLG
EC50 (pM), HUVEC repulsion assay [2]: 113 pM
VAL norm to TPP-9809 (1 to 1 ratio) [3]: 0.38
VAL norm to TPP-9809 (1 to 5 ratio) [3]: 0.18

B8: TPP-23338 (antibody, human IgG4 S228P, lambda, V domains shown)
VH: EVQLLESGGGLVQPGGSLRLSCAASGFTFSSYAMSWVRQAPGKGLEWVSAIGYGGDTYYADSVKGRFTISRDNSKNTLYLQMNSLRAEDTAVYYCARRDDYTSRDAFDYWGQGTLVTVSS
VL: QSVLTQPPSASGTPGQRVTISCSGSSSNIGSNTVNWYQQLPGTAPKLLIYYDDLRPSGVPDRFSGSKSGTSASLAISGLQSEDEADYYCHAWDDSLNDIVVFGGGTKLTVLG
VAL norm to TPP-9809 (1 to 1 ratio) [3]: 0.33

B9: TPP-23347 (antibody, human IgG4 S228P, lambda, V domains shown)
VH: EVQLLESGGGLVQPGGSLRLSCAASGFTFYSYAMLWVRQAPGKGLEWVSAIGTGGDTYYADSVKGRFTISRDNSKNTLYLQMNSLRAEDTAVYYCARRDDYTSRDAFDYWGQGTLVTVSS
VL: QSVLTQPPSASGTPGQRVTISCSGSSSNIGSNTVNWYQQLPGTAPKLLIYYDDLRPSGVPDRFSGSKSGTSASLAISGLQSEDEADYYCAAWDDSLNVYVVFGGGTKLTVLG
VAL norm to TPP-9809 (1 to 1 ratio) [3]: 0.3
VAL norm to TPP-9809 (1 to 5 ratio) [3]: 0.16

B10: TPP-23345 (antibody, human IgG4 S228P, lambda, V domains shown)
VH: EVQLLESGGGLVQPGGSLRLSCAASGFTFSSYAMSWVRQAPGKGLEWVSAIGYGGDTYYADSVKGRFTISRDNSKNTLYLQMNSLRAEDTAVYYCARRDDYTSRDAFDYWGQGTLVTVSS
VL: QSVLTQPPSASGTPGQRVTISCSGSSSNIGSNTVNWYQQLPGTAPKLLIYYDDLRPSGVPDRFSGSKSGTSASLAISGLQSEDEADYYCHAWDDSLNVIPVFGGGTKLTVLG
VAL norm to TPP-9809 (1 to 1 ratio) [3]: 0.27
VAL norm to TPP-9809 (1 to 5 ratio) [3]: 0.08

B11: TPP-30788 (antibody, human IgG1, kappa, V domains shown)
VH: EVQLVESGGGLVQPGGSLRLSCAASGFTFSSYYMSWVRQAPGKGLEWVSTIIKSGGYAYYPDSVKDRFTISRDNSKNTLYLQMSSLRAEDTAVYYCVRGGQGAMDYWGQGTTVTVSS
VL: EIVLTQSPATLSLSPGERATLSCRASQSIGDYLHWYQQKPGQAPRLLIKYASQSISGIPARFSGSGSGTDFTLTITSLEPEDFAVYYCQQGYSFPYTFGGGTKLEIKR
notes: prior art, WO 2020/225400; also called BI clone I; Böhringer (BI) Clone I
Binding Activity [%] [1]: 107%

B12: TPP-30789 (antibody, human IgG1, kappa, V domains shown)
VH: EVQLVESGGGLVQPGGSLRLSCAASGFPFSSYYMSWVRQAPGKGLEWVSTIIKSGGYAYYPDSVKDRFTISRDNSKNTLYLQMSSLRAEDTAVYYCVRGGQGAMDYWGQGTTVTVSS
VL: EIVLTQSPATLSLSPGERATLSCRASQSIGDYLHWYQQKPGQAPRLLIKYASQSISGIPARFSGSGSGTDFTLTITSLEPEDFAVYYCQQGYSFPYTFGGGTKLEIKR
notes: prior art, WO 2020/225400; also called BI clone II; Böhringer (BI) Clone II
Binding Activity [%] [1]: 103%

B13: TPP-30790 (antibody, human IgG1, kappa, V domains shown)
VH: EVQLVESGGGLVQLGGSLRLSCAASGFTFSSYYMSWVRQAPGKGLEWVSTIIKSGGYAYYPDSVKDRFTISRDNSKNTLYLQMNSLRAEDTAVYYCVKGGQGAMDYWGQGTTVTVSS
VL: EIVLTQSPATLSLSPGERATLSCRASQSIGDYLHWYQQKPGQAPRLLIYYASQSISGIPARFSGSGSGTDFTLTISSLEPEDFAVYYCQQGYSFPYTFGGGTKLEIKR
notes: prior art, WO 2020/225400; also called BI clone III; Böhringer (BI) Clone III
Binding Activity [%] [1]: 92%

B14: TPP-30791 (antibody, human IgG1, kappa, V domains shown)
VH: EVQLVESGGGLLQLGGSLRLSCAASGFTFSSYYMSWVRQAPGKGLEWVSTIIKSGGYAYYPDSVKDRFTISRDNSKNTLNLQMNSLRAEDTAVYYCVKGGQGAMDYWGQGTTVTVSS
VL: EIVLTQSPATLSLSPGERATLSCRASQSIGDYLHWYQQKPGQAPRLLIKYASQSISGIPARFSGSGSGTDFTLTISSLEPEDFAVYYCQQGYSFPYTFGGGTKLEIKR
notes: prior art, WO 2020/225400; also called BI clone IV; Böhringer (BI) Clone IV
Binding Activity [%] [1]: 107%

From patent publication US20240254222A1 (Bayer, published 2024)
